From patent publication US11998613B2, “Antibody-drug conjugates containing an anti-mesothelin antibody and uses thereof” (DEVELOPMENT CENTER FOR BIOTECHNOLOGY, priority 2020, dated 2024) come the findings set out here.

Where two headings read alike, the source gives them in different places. Non-standard residues stand in square brackets, D forms with d. Residues, ends and D or L forms follow the SMILES beside them. *: point of attachment. Dolaproine = CO[C@@H]([C@@H]1CCCN1)[C@@H](C)C(=O)O; Dil = CC[C@H](C)[C@H](NC)[C@@H](CC(=O)O)OC; X1 = C[C@@H](N*)[C@@H](O)c1ccccc1; NMeV = CN[C@H](C(=O)O)C(C)C

Data set [1] deals with Pancreatic cancer cell line KLM-1 (MSLN+). Put plainly: In vitro cytotoxicity, CellTiter-Glo luminescent cell viability assay, KLM-1. Type of data set: cell-based, human. The following applies: KLM-1, 72 hours treatment; read-out: Relative IC50 (nM of toxic payload/ADCs). The method, then:
(§1) Pancreatic cancer cell line KLM-1 was respectively grown in RPMI 1640 Medium (ATCC modification) medium supplemented with 10% fetal bovine serum. Ovarian carcinoma cell line OVCAR-3 was grown in RPMI 1640 Medium (ATCC modification) medium supplemented with 20% fetal bovine serum. The KLM-1 & OVCAR-3 cell lines were maintained in an atmosphere of 5% CO2 in a humidified 37° C. incubator. The day before treatment, cells were collected and seeded into 96-well plates (4,000 cells per well). On the second day, cells were treated with 3-fold serial dilution concentration of toxic payloads and ADCs. Each treatment was performed in eight triplicate data points. After the treatment of 72 hours, cell viability was assessed by CellTiter-Glo® kit (Promega) according to the manufacturer's instruction. At the end of the incubation, luminescence was measured using a SpectraMax i3x Multi Mode Detection Platform (Molecular Devices). Compound cytotoxicity was evaluated in comparison to cells treated with 0.05% PBS (ADCs) or 0.05% DMSO (toxic payload). IC50 values were calculated by fitting viability data with a four-parameter logistic equation using GraphPad prism 5.0 software.

The test system of data set [2] is Ovarian carcinoma cell line OVCAR-3 (MSLN+). As to the kind of experiment: In vitro cytotoxicity, CellTiter-Glo luminescent cell viability assay, OVCAR-3. Type of data set: cell-based, human. As to conditions: read-out: Relative IC50 (nM of toxic payload/ADCs). As to the method:
as §1, with “The” for “Pancreatic cancer cell line KLM-1 was respectively grown in RPMI 1640 Medium (ATCC modification) medium supplemented with 10% fetal bovine serum. Ovarian carcinoma cell line OVCAR-3 was grown in RPMI 1640 Medium (ATCC modification) medium supplemented with 20% fetal bovine serum. The”
A general note: Cellular ATP, detected with luciferase, serves as a proxy for viable cell number.

In data set [3] the target is T1, mesothelin protein (Homo sapiens, UniProt Q13421). Put plainly: Affinity measurements and kinetic analysis using BIAcore (SPR), mesothelin immobilised. The data set is classed as binding. The method, then: To know the biding kinetics difference among individual antibodies, surface plasmon resonance (SPR) measurement with a BIAcore T200 (Cytiva Inc.) was used as previously described (Karlsson & Falt, (1997) J. Immunol Methods 200:121-133). Carboxymethylated dextran biosensor chips (CM5, Cytiva Inc.) were activated with N-ethyl-N′-(3-dimethylaminopropyl)-carbodiimide hydrochloride (EDC) and N-hydroxysuccinimide (NHS) according to the supplier's instructions. Mesothelin protein was diluted with 10 mM sodium acetate, pH 4.0, into 5 μg/ml before injection at a flow rate of 10 μL/minute to achieve approximately 1500 response units (RU) of coupled protein followed by the injection of 1M ethanolamine to block unreacted groups. For kinetics measurements, two-fold serial dilutions of anti-mesothelin mAb (0.3125 nM to 40 nM) were injected in HBS-EP+ Biacore running buffer provided by the manufacturer (Cytiva Inc.) at 25 degree C. at a flow rate of 30 μL/min, and binding responses on the mesothelin protein were corrected by subtraction of responses on a blank flow cell. Association rates (kon or ka) and dissociation rates (koff or kd) were calculated using a simple one-to-one Langmuir binding model with separate fittings of kon and koff was used. (Cytiva.™. Biacore Insight Evaluation Software).
(In general: SPR reads the build-up and loss of mass on a sensor chip optically.)

The target of data set [4] is T1, mesothelin protein. As to the kind of experiment: Binding kinetics of anti-mesothelin ADCs by surface plasma resonance (Biacore T100). The following applies: analyte MSLN. As to the method:
The kinetic constant of the anti-mesothelin ADCs interaction against mesothelin was determined by surface plasma resonance (Biacore® T100, Biacore, Inc., Piscataway, NJ). The flow cell of the CM5 wafer was fixed with approximately 10,000 reaction units (RU) of anti-human IgG-Fc (Biacore®) in 10 mM glycine pH 5.0 at 10 μL/min for 600 seconds. 10 μg/mL of anti-mesothelin antibody and anti-mesothelin ADCs diluted in TBS at 10 μl/min were captured on CM5 chips. Four concentrations (from 3.7 to 100 nM) of human mesothelin recombinant protein and zero concentration (flow buffer) in 100 μl/min binding were recorded in PBS containing 1 mM CaCl2 for 3 minutes. The dissociation of the complex was measured for 10 minutes. The water surface was regenerated by injecting 3 M MgCl2 and 3 mM EGTA at 10 μl/min for 60 seconds. The curve obtained after subtracting the reference and buffer signals was taken into the 1:1 Langmuir binding model using the Biacore® T100 evaluation software (Biacore®).

Data set [5] concerns KLM-1 human pancreatic cancer xenograft. As to the kind of experiment: KLM-1 xenograft model (Example 45). As to conditions: 15 mg/kg IV once weekly for 3 weeks. The method, then:
Formulations respectively comprising test article DCBPR2002-4(DBCO-vc-MMAE)(15 mg/kg), test article DCBPR2002-4(DBCO-vc-seco-DUBA)(15 mg/kg), test article DCBPR2002-4(DBCO-s-DM1) (15 mg/kg), test article DCBPR2002-2(DBCO-vc-MMAE)-2(DBCO-vc-seco-DUBA) (15 mg/kg), test article DCBPR2002-2(DBCO-vc-MMAE)-2(DBCO-s-DM1) (15 mg/kg), test article DCBPR2002-2(DBCO-vc-seco-DUBA)-2(DBCO-s-DM1) (15 mg/kg), and a corresponding vehicle were formulated by diluting the stock with a 25 mM sodium citrate buffer (pH6.5). Each of the formulations was administered intravenously (IV) once weekly for three weeks.
The KLM-1 cells were maintained in vitro as a monolayer culture in RPMI-1640 medium supplemented with 10% fetal bovine serum at 37° C. in an atmosphere of 5% CO2 in air. The tumor cells were routinely sub-cultured twice weekly by trypsin-EDTA treatment. The cells growing in an exponential growth phase were harvested and counted for tumor inoculation.
Male NOD SCID mice at age of 6-7 weeks were purchased from BioLasco Taiwan Co., LTD. and quarantined for one week. Five mice were housed in each cage. All animals were hosted in the animal facility with a 12-h light/12-h dark cycle at 19-25° C. Animals had free access to rodent pellet foods and water ad libitum.
KLM-1 cells were subcutaneously (SC) implanted (4×10^6 cells in 1:1 PBS/matrigel mixture at 0.1 mL per mouse) into the right flank of male NOD SCID mice. When the average tumor volume had reached 300 mm^3, the mice were randomly divided into 7 groups (N=6 per group). Each of the vehicle, DCBPR2002-4(DBCO-vc-MMAE), DCBPR2002-4(DBCO-vc-seco-DUBA), DCBPR2002-4(DBCO-s-DM1), DCBPR2002-2(DBCO-vc-MMAE)-2(DBCO-vc-seco-DUBA), DCBPR2002-2(DBCO-vc-MMAE)-2(DBCO-s-DM1), DCBPR2002-2(DBCO-vc-seco-DUBA)-2(DBCO-s-DM1) was intravenously administered as 15 mg/kg once weekly for 3 weeks.
The tumor volumes, body weights, mortality, and signs of overt toxicity were monitored and recorded three times weekly for 28 days. Tumor volumes were measured three times per week using calipers and calculated according to the formula: Tumor Volume=(w2×l)/2, where w=width and l=length in diameter (mm) of the tumor. […] One-way ANOVA followed by Dunnett's test was applied for comparison between the vehicle and test article-treated groups. Differences are considered significant at *P<0.05. Animals were weighed three times weekly until the completion of the study.

The mark [6] stands for this setting: BIAcore T200, 25 degree C, 1:1 Langmuir model.

T1 sequence (Q13421 with tags, fused parts or gaps): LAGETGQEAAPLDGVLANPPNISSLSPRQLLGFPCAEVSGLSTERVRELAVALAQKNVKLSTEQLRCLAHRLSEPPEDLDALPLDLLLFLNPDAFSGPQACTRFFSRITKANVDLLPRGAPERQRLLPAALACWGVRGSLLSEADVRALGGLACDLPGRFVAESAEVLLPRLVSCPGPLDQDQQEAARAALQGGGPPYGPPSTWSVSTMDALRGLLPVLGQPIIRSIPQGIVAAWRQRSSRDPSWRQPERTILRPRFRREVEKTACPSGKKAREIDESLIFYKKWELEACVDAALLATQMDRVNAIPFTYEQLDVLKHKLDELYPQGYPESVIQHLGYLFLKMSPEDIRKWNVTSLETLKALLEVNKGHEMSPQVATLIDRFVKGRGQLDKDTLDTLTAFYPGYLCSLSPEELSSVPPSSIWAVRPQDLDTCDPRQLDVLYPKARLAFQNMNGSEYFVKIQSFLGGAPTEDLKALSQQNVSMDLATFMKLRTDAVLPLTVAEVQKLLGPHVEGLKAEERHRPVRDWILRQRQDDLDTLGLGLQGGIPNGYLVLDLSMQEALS

On to `COc1cc2cc(c1Cl)N(C)C(=O)C[C@H](OC(=O)[C@H](C)N(C)C(=O)CCS)[C@]1(C)O[C@H]1[C@H](C)[C@@H]1C[C@@](O)(NC(=O)O1)[C@H](OC)/C=C/C=C(\C)C2` [DM1, reference compound], for which the IC50 turned out to be 2.1 nM in data set [1] and 1.6 nM in data set [2] (OVCAR-3, 72 hours treatment).
In the case of `CC[C@@]1(O)C(=O)OCc2c1cc1n(c2=O)Cc2c-1nc1cc(F)c(C)c3c1c2[C@@H](NC(=O)CO)CC3` [DXd, reference compound], in data set [2] (OVCAR-3, 72 hours treatment), the IC50 is more than 100 nM.
Regarding `CC[C@@]1(O)C(=O)OCc2c1cc1n(c2=O)Cc2c-1nc1cc(F)c(C)c3c1c2[C@@H](N)CC3` [Exatecan, reference compound], the IC50 in data set [2] (Homo sapiens, OVCAR-3, 72 h) is 20.1 nM.
`CC[C@H](C)[C@@H]([C@@H](CC(=O)N1CCC[C@H]1[C@H](OC)[C@@H](C)C(=O)N[C@H](C)[C@@H](O)c1ccccc1)OC)N(C)C(=O)[C@@H](NC(=O)[C@@H](NC)C(C)C)C(C)C` [MMAE, monomethyl auristatin E, reference compound] (H-[NMeV]V[Dil][Dolaproine]-X1): the IC50 in data set [1] amounted to 0.3 nM; in data set [2] (OVCAR-3, 72 hours treatment), 0.3 nM.
Take “SS1: mouse anti-mesothelin antibody clone SS1, SEQ ID NOs: 7 and 8, of U.S. Pat. No. 7,081,518 B1; expressed as human Fc chimera [reference compound]”: in the data set with mesothelin protein [3] (BIAcore T200), the “Rmax(RU)” value stood at 218.2 RU. Also, in the data set with mesothelin protein [3] (setting [6]), the “ka” value was determined as 3.415e+06 M⁻¹ s⁻¹ and the “kd” value is 1.194e-05 s⁻¹. In the data set with mesothelin protein [3] (BIAcore T200, 25 degree C, 1:1 Langmuir model, listed as chimera SS1 mAb), the “kd” value was found to be 1.194e-05 s⁻¹.

B1: DCBPR2002-2(DBCO-vc-MMAE)-2(DBCO-vc-seco-DUBA): dual-payload ADC: DCBPR2002-2(DBCO-vc-MMAE)-2Az reacted with DBCO-vc-seco DUBA; DAR ~4 (conjugate)
VH: QVQLVQSGAEVKKPGASVKVSCKASGYSFTGYTMNWVRQAPGQGLEWMGLITPYNGASSYNQKFRGRVTMTRDTSISTAYMELSRLRSDDTAVYYCARGGYDGRGFDYWGQGTLVTVSS
VL: EIVLTQSPATLSLSPGERATLSCSASSSVSYMHWYQQKPGQAPRLLIYDTSKLASGIPARFSGSGSGTDFTLTISSLEPEDFAVYYCQQWSKHPLTFGQGTKVEIKR
Regarding B1, the “Rmax(RU)” value with mesothelin protein [4] turned out to be 50.98 RU. For the same molecule, the Ka with mesothelin protein [4] (antibody/ADC captured on CM5 chip via anti-human IgG-Fc) is 4.752E+6. In addition, the “dissociation rate constant (koff)” value with mesothelin protein [4] (dissociation rate, antibody/ADC captured on CM5 chip) was 1.218E−4. For the same molecule, the IC50 in data set [1] stood at 46 nM. Besides, the IC50 in data set [2] (OVCAR-3, 72 hours treatment) turned out to be 43.3 nM. For the same molecule, in data set [5], the body weight changes entry is “No body weight loss was observed” and the “ranking of efficacy potency” value is listed as “DCBPR2002-4(DBCO-vc-seco-DUBA)=DCBPR2002-2(DBCO-vc-MMAE)-2(DBCO-vc-seco-DUBA)=DCBPR2002-2(DBCO-vc-seco-DUBA)-2(DBCO-s-DM1)>DCBPR2002-4(DBCO-vc-MMAE)>DCBPR2002-2(DBCO-vc-MMAE)-2(DBCO-s-DM1)>DCBPR2002-4(DBCO-s-DM1)”.

B2: DCBPR2002-2(DBCO-vc-MMAE)-2(DBCO-s-DM1): dual-payload ADC: DCBPR2002-2(DBCO-vc-MMAE)-2Az reacted with DBCO-S-DM1; DAR ~4 (conjugate)
VH: B1 VH
VL: B1 VL
Turning to B2, the IC50 in data set [1] is 15.4 nM. Moreover, the IC50 in data set [2] (OVCAR-3, 72 hours treatment) came out at 4.6 nM. For the same molecule, in data set [5], the body weight changes entry is on record as “No body weight loss was observed” and the “ranking of efficacy potency” value was “DCBPR2002-4(DBCO-vc-seco-DUBA)=DCBPR2002-2(DBCO-vc-MMAE)-2(DBCO-vc-seco-DUBA)=DCBPR2002-2(DBCO-vc-seco-DUBA)-2(DBCO-s-DM1)>DCBPR2002-4(DBCO-vc-MMAE)>DCBPR2002-2(DBCO-vc-MMAE)-2(DBCO-s-DM1)>DCBPR2002-4(DBCO-s-DM1)”.

B3: DCBPR2002-2(DBCO-vc-seco-DUBA)-2(DBCO-s-DM1): dual-payload ADC: DCBPR2002-2(DBCO-vc-seco DUBA)-2Az reacted with DBCO-S-DM1; DAR ~4 (conjugate)
VH: B1 VH
VL: B1 VL
On to B3, for which the IC50 in data set [1] came out at 27 nM; in data set [2] (OVCAR-3, 72 hours treatment), 36.3 nM. Besides, the body weight changes result in data set [5] is recorded as “No body weight loss was observed”. Further, the “ranking of efficacy potency” value in data set [5] is listed as “DCBPR2002-4(DBCO-vc-seco-DUBA)=DCBPR2002-2(DBCO-vc-MMAE)-2(DBCO-vc-seco-DUBA)=DCBPR2002-2(DBCO-vc-seco-DUBA)-2(DBCO-s-DM1)>DCBPR2002-4(DBCO-vc-MMAE)>DCBPR2002-2(DBCO-vc-MMAE)-2(DBCO-s-DM1)>DCBPR2002-4(DBCO-s-DM1)”.

B4: DCBPR2002-4(DBCO-s-DM1) (conjugate)
VH: B1 VH
VL: B1 VL
B4: the IC50 in data set [1] stood at 13.9 nM. Further, the IC50 in data set [2] (OVCAR-3, 72 hours treatment) was 2.6 nM. In addition, in data set [5], the body weight changes result is “No body weight loss was observed” and the “ranking of efficacy potency” value is listed as “DCBPR2002-4(DBCO-vc-seco-DUBA)=DCBPR2002-2(DBCO-vc-MMAE)-2(DBCO-vc-seco-DUBA)=DCBPR2002-2(DBCO-vc-seco-DUBA)-2(DBCO-s-DM1)>DCBPR2002-4(DBCO-vc-MMAE)>DCBPR2002-2(DBCO-vc-MMAE)-2(DBCO-s-DM1)>DCBPR2002-4(DBCO-s-DM1)”.
